The target in one experiment is T1, synthetic Aβ34 peptide.
T1 construct: Synthetic peptide from PSL, Germany
Nature of the experiment: SPR (Biacore T200), multi-cycle titration of Aβ34 (0-1.6 µM, 3-fold series) over mab34 captured on an anti-mouse Fc sensor; steady-state affinity fit of Requilibrium against concentration. As to the method:
Using a BIACORE T200 system (GE Healthcare Bio-Sciences AB, Upsala, Sweden; v2.0 Control and v1.0 Evaluation software), SPR experiments were performed at 25° C. using filtered (0.2 μm) and degassed HBS-EP+ buffer (10 mM HEPES pH 7.4; 150 mM NaCl; 3 mM EDTA; 0.05% (v/v) Tween™-20). Using Biacore's Amine Coupling Kit, Mouse Antibody Capture Kit, and CM5 sensors, an anti-mouse Fc antibody (14 μg/mL in 10 mM sodium acetate pH 5.0) was immobilized to the flow cells (8000 RU each) as recommended by GE. […] Between each sample series, surfaces were regenerated at 50 μL/min. using two 30 sec pulses of Pierce Gentle Ag/Ab Elution Buffer pH 6.6 (Thermo Scientific #21027) as well as 10 mM glycine pH 1.7.
(In SPR one partner is held on a chip, and binding of the other changes the refractive index at the surface.)

Another experiment has as its target T2, synthetic Aβ38 peptide (UniProt P05067 672-709).
T2 construct: domain: Aβ38
Nature of the experiment: SPR (Biacore T200), single-cycle kinetics, peptide as analyte (7.8-2000 nM) over mab34 captured on an anti-mouse Fc sensor. As to the method:
(§1) Using a BIACORE T200 system (GE Healthcare Bio-Sciences AB, Upsala, Sweden; v2.0 Control and v1.0 Evaluation software), SPR experiments were performed at 25° C. using filtered (0.2 μm) and degassed HBS-EP+ buffer (10 mM HEPES pH 7.4; 150 mM NaCl; 3 mM EDTA; 0.05% (v/v) Tween™-20). Using Biacore's Amine Coupling Kit, Mouse Antibody Capture Kit, and CM5 sensors, an anti-mouse Fc antibody (14 μg/mL in 10 mM sodium acetate pH 5.0) was immobilized to the flow cells (8000 RU each) as recommended by GE. To assess binding specificity, a variety of Aβ peptides (0 2 μM; 4-fold dilution series) were titrated over reference (anti-mouse Fc antibody only) and active (1000 RU mab34 captured to anti-mouse Fc antibody) surfaces in single-cycle kinetic mode (25 uL/min.×5 min. association+10 min. dissociation). Between each sample series, surfaces were regenerated at 50 μL/min. using two 30 sec pulses of Pierce Gentle Ag/Ab Elution Buffer pH 6.6 (Thermo Scientific #21027) as well as 10 mM glycine pH 1.7.

The target in another experiment is T3, synthetic Aβ42 peptide (UniProt P05067 672-713).
T3 construct: domain: Aβ42; also called Abeta42
Described as above. As to the method: as §1

A further experiment addresses T4, synthetic Aβ40 peptide (UniProt P05067 672-711).
T4 construct: domain: Aβ40
The experiment is described as above. As to the method: as §1

The next experiment has as its target T5, synthetic Aβ35 peptide (UniProt P05067 672-706).
T5 construct: domain: Aβ35
Described as above. As to the method:
as §1

Experiment [1] deals with Aβ34 G33A variant (G33A modified neo-epitope). In words: SPR (Biacore T200), single-cycle kinetics, Aβ34 variant peptide as analyte (7.8-2000 nM) over mab34 captured on an anti-mouse Fc sensor. As to the method:
as §1

The Kd is the constant that tells how readily two partners part at equilibrium. Low values mean tighter binding, high ones weaker binding.

T5 sequence (P05067 672-706 limits assumed): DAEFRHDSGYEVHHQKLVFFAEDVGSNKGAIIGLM
T4 sequence (P05067 672-711 limits assumed): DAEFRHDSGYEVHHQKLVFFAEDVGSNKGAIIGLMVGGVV
T3 sequence (P05067 672-713 limits assumed): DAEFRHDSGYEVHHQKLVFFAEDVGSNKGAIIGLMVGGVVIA
Aβ34 G33A variant (G33A modified neo-epitope), sequence (peptide, as listed by the source G33A G33A G33A G33A): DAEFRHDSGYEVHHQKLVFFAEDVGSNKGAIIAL
T1 sequence (peptide, as listed by the source): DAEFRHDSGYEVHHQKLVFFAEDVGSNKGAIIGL
T2 sequence (P05067 672-709 limits assumed): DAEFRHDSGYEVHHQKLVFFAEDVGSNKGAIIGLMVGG

B1: mab34 (monoclonal neo-epitope anti-Aβ34 antibody) (antibody, V domains shown)
VH: VKLVESGGGLVKPGGSLKLSCAASGFTFSTYAMSWVRQTPEKRLEWVASISSGGNTYYPDSVKGRFTISRDNARHILYLQMSSLRSEDTAMYYCARDSYYFGNSVYYAMDYWGQGTSVTVSS
VL: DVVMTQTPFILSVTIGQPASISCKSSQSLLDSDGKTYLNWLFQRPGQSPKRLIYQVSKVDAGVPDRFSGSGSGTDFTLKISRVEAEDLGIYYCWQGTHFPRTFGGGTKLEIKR
notes: Mouse monoclonal from a hybridoma (Balb/cJ mice immunised with Aβ27-34-KLH); In SPR it was captured on an anti-mouse Fc surface
Take B1: the dissociation constant (Kd) with synthetic Aβ34 peptide was around 40 nM. Further, the binding result (with synthetic Aβ38 peptide; with synthetic Aβ42 peptide; with synthetic Aβ40 peptide; in the experiment with synthetic Aβ35 peptide; in experiment [1]) was “no binding (tested: 2000 nM)” each time.

Values taken from US20210285971A1 (ROYAL INSTITUTION FOR THE ADVANCEMENT OF LEARNING MCGILL …, published 2021).
